Assay [1] deals with extracellular part of human CD40L (aa 108-261 recombinantly produced in E. coli) (human) (UniProt P29965). Nature of the assay: BLI (OctetRED96), Fab captured on anti-human Fab-CH1 (FAB2G) sensors, soluble CD40L 2.5-80 nM, 1:1 global fit; purchased.
A further assay deals with IL-1β. Nature of the assay: cell-based or functional assay.

Bounds are passed on as bounds.

Sequence of extracellular part of human CD40L (aa 108-261 recombinantly produced in E. coli) (human) (P29965 108-261 limits assumed): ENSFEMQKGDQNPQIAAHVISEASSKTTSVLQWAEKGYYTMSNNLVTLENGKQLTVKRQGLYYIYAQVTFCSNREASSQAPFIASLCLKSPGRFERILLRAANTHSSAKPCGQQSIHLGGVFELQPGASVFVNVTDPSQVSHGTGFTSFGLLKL

One may read the Kd as a measure of binding affinity in units of concentration. Consider Dapirolizumab Fab, for which the Kd in assay [1] is less than 0.3 nM.

Substance “Met-huIL-1Ra (Anakinra) (from UniProt P18510 26-177) (ligand)” showed an NHDF IC50 (pM); inhibition of IL-1β induced IL-6 release from NHDF cells with IL-1β of 70 pM.

For the substance “PEG(L30kDa)-Met-huIL-1Ra (from UniProt P18510 26-177) (ligand)”, the NHDF IC50 (pM); inhibition of IL-1β induced IL-6 release from NHDF cells with IL-1β stood at 900 pM.

The values above are taken from US20210284690A1.
